# In the supplement of paper PMC7125110:
# ± gives the standard error. Variants at the floor of the assay were thinned out.
# B1: glmS ribozyme (parent)
# chain: AUAAAAGCGCCAGAACUACAGAAAUGUAGUUGACGAGGAGGAGGUUUAUCGAAUUUUCGGCGGAUGCCUCCAAA
# Tests used:
# Conditions in all cases: with glucosamine-6-phosphate
# glucosamine-6-phosphate [1] = variants of: B1; assay: self-cleavage kobs at 40 uM GlcN6P; higher = faster cleavage; RNA array
# In short: (§1)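 E. coli RNA polymerase transcribed barcoded ribozyme variants in situ on sequenced MiSeq chips, which were tracked via a hybridised Cy3 probe at 37 °C. Tiles were imaged over ~14 h after glucosamine-6-phosphate (40 μM to 10 mM) in HEPES/KCl/Mg(OAc)2 buffer was flowed in. Normalised per-tile medians were fit to one- or two-exponential decays for kobs, and kcat and KM came from weighted Michaelis–Menten fits.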
# glucosamine-6-phosphate [2] = variants of: B1; assay: self-cleavage kobs at 2500 uM GlcN6P; higher = faster cleavage; RNA array
# In short: as §1
# glucosamine-6-phosphate [3] = variants of: B1; assay: self-cleavage kobs at 10000 uM GlcN6P; higher = faster cleavage; RNA array
# In short: as §1
# glucosamine-6-phosphate [4] = variants of: B1; assay: self-cleavage kobs at 160 uM GlcN6P; higher = faster cleavage; RNA array
# In short: as §1
# glucosamine-6-phosphate [5] = variants of: B1; assay: self-cleavage kobs at 640 uM GlcN6P; higher = faster cleavage; RNA array
# In short: as §1
Variant,self-cleavage kobs at 40 uM GlcN6P (glucosamine-6-phosphate [1]) [s⁻¹],self-cleavage kobs at 2500 uM GlcN6P (glucosamine-6-phosphate [2]) [s⁻¹],self-cleavage kobs at 10000 uM GlcN6P (glucosamine-6-phosphate [3]) [s⁻¹],self-cleavage kobs at 160 uM GlcN6P (glucosamine-6-phosphate [4]) [s⁻¹],self-cleavage kobs at 640 uM GlcN6P (glucosamine-6-phosphate [5]) [s⁻¹]
A14U C16U C70U,0.000248 ± 7.9e-05,0.00092 ± 0.0002,0.00877 ± 0.0026,–,–
U46G A53U C70G,5.33e-05 ± 2.4e-05,0.000254 ± 7.7e-05,0.000165 ± 4e-05,–,–
C10G C11A A42U,< 1e-05,< 1e-05,< 1e-05,–,–
C34G G59A G60U,< 1e-05,–,< 1e-05,< 1e-05,< 1e-05
A33C A52C C71A,< 1e-05,< 1e-05,–,–,< 1e-05
U49G G51A G63A,< 1e-05,–,< 1e-05,–,–
A48G A53G C68G,6.75e-05 ± 2.2e-05,–,5.82e-05 ± 1.7e-05,–,–
C8A G29C,< 1e-05,< 1e-05,< 1e-05,< 1e-05,< 1e-05
C16A G44U,< 1e-05,–,–,< 1e-05,< 1e-05
G7U G29A U30C C34U U45A,< 1e-05,–,–,–,–
C61U U65C,< 1e-05,< 1e-05,< 1e-05,–,< 1e-05
A14G U45A A48U,0.000108 ± 2.6e-05,–,0.00563 ± 0.001,–,–
G7U G43A,< 1e-05,< 1e-05,< 1e-05,< 1e-05,< 1e-05
A14U U31G G38C A52U A53U,< 1e-05,–,–,–,–
G29C G41C G44A G60A,< 1e-05,–,< 1e-05,–,–
G7A C50G C71U,0.000141 ± 3.5e-05,0.000177 ± 3.7e-05,9.72e-05 ± 2.2e-05,0.000482 ± 9.3e-05,0.000136 ± 3.9e-05
A39G A42U U57A,< 1e-05,–,–,< 1e-05,–
U31G C61U,< 1e-05,< 1e-05,–,< 1e-05,< 1e-05
G13U G40U A48C A53G U57G,< 1e-05,–,–,–,–
A6G G29U G35A C50G G51U G66U C71U,< 1e-05,–,–,–,–
A15G U69C,0.00027 ± 7e-05,0.00345 ± 0.0012,–,–,0.00141 ± 0.00058
A12C U55G,0.000833 ± 0.00013,0.00822 ± 0.0022,0.0274 ± 0.0044,0.000979 ± 0.00021,0.00404 ± 0.00084
A14U C61A,< 1e-05,–,< 1e-05,–,–
G29A U69C,6.51e-05 ± 1.6e-05,0.000105 ± 1.6e-05,0.000486 ± 0.00013,7e-05 ± 1.3e-05,0.000122 ± 2.2e-05

Variant,self-cleavage kobs at 40 uM GlcN6P (glucosamine-6-phosphate [1]) [s⁻¹],self-cleavage kobs at 2500 uM GlcN6P (glucosamine-6-phosphate [2]) [s⁻¹],self-cleavage kobs at 10000 uM GlcN6P (glucosamine-6-phosphate [3]) [s⁻¹],self-cleavage kobs at 160 uM GlcN6P (glucosamine-6-phosphate [4]) [s⁻¹],self-cleavage kobs at 640 uM GlcN6P (glucosamine-6-phosphate [5]) [s⁻¹]
G7C G60U,< 1e-05,< 1e-05,< 1e-05,< 1e-05,–
C8U C16G C50G,0.000158 ± 3.8e-05,–,8.29e-05 ± 1.9e-05,–,–
G37U G66A,< 1e-05,–,–,–,< 1e-05
G37C U56C,< 1e-05,–,< 1e-05,–,–
A12G G63U,< 1e-05,–,< 1e-05,< 1e-05,–
G38A U49G A52U,< 1e-05,–,–,–,–
G43C G62U,< 1e-05,< 1e-05,< 1e-05,< 1e-05,< 1e-05
G7U A36U U54A G62A,< 1e-05,–,–,–,–
G41C U57A,< 1e-05,< 1e-05,< 1e-05,< 1e-05,–
G13A G43A C67A,< 1e-05,–,–,–,–
C10A A52U U56G,< 1e-05,< 1e-05,< 1e-05,< 1e-05,< 1e-05
A36U A42U C68U,< 1e-05,–,–,–,–
A6C A52U C70U,< 1e-05,–,–,–,< 1e-05
C50U G62U,< 1e-05,–,< 1e-05,–,–
A36C G41A G43A,< 1e-05,–,–,–,–
C50G G62A C70U,9.58e-05 ± 2.3e-05,0.000549 ± 0.00012,0.000104 ± 1.6e-05,–,0.000184 ± 4.7e-05
G9A C11G G35U G37U C61U,< 1e-05,< 1e-05,–,–,–
G43A G51C G63A C68U,< 1e-05,–,–,–,–
G35U A64C,< 1e-05,< 1e-05,< 1e-05,< 1e-05,< 1e-05
G9C U46C,< 1e-05,–,< 1e-05,–,< 1e-05
G7U G43U C50U G51C,< 1e-05,–,< 1e-05,–,–
G59C A64U,< 1e-05,–,< 1e-05,< 1e-05,< 1e-05
G37C G60U,< 1e-05,–,< 1e-05,< 1e-05,–
